One assay deals with gp70 A.92RW020V1V2 (murine leukemia virus; HIV-1). Briefly: ELISA, mAb 0.001-100 ug/ml on coated V1V2 scaffold, OD450. A general note: In an ELISA, binding on a coated surface is turned into a signal by an enzyme label.
Assay [1] deals with T1, J08 A.92RW020V1V2/N156QN160Q (HIV-1).
T1 construct: also called J08 A.92RW020VV1V2/N156QN160Q
The description is as above.

The target of another assay is T2, gp70 B.HXB2/BALV1V2 (murine leukemia virus; HIV-1).
T2 chain: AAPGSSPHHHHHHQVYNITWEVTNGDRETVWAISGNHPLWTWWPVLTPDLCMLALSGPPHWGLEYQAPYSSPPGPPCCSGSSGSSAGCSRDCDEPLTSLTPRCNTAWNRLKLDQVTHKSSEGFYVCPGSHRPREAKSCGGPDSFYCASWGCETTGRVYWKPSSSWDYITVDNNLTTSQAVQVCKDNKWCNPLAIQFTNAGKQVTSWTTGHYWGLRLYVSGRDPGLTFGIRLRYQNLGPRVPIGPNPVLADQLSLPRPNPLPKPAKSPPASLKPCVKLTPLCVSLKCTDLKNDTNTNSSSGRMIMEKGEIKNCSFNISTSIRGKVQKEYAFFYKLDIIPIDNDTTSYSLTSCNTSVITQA
The assay is described as above.

Assay [2] deals with T3, gp70 B.HXB2/BALV1V2/N156QN160Q (murine leukemia virus; HIV-1).
T3 chain: T2 chain with N311Q, N315Q
The description is as above.

For assay [3], the target named is T4, J08 B.HXB2/BALV1V2N156QN160Q (HIV-1).
T4 chain: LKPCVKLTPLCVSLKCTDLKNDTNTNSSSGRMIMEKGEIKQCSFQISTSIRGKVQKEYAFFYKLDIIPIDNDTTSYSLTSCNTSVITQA
Described as above.

A further assay has as its target T5, J08 C.97ZA012V1V2 (HIV-1).
T5 chain: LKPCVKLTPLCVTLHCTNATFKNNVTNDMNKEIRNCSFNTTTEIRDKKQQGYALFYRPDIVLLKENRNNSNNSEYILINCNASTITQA
The assay is described as above.

Assay [4] concerns the target T6, AE.A244 gD+ gp120 N160K (HIV-1).
T6 construct: domain: gp120
Briefly: ELISA.

Assay [5] concerns the target T6, AE.A244 gD+ gp120 N160K. Briefly: ELISA. This is another data set of the same source.
The target of the next assay is T7, A.9004SS V1/V2 tags.
T7 V1V2 tags construct: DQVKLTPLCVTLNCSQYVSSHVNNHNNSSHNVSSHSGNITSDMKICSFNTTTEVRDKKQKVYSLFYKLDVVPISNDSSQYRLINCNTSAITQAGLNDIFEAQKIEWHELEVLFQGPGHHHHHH
In words: ELISA, OD405 at 10 ug/ml.

The target of another assay is AE.con gp140CF. In words: ELISA, OD405 at 10 ug/ml.
For another assay, the target named is B.040 gp140C. Briefly: ELISA, OD405 at 10 ug/ml.
For another assay, the target named is T8, B.62357 gp140C.
T8 construct: also called B.62357 140C
In words: ELISA, OD405 at 10 ug/ml.

Another assay deals with B.63521_V1/V2 tags. In words: ELISA, OD405 at 10 ug/ml.
Assay [6] deals with T9, C.1086 gp140.
T9 construct: also called C.1086gp140C
Briefly: ELISA, OD405 at 10 ug/ml.

The target in another assay is Con 6 gp120. Briefly: ELISA, OD405 at 10 ug/ml.
In another assay the target is D.9009SA V1/V2 tags. In words: ELISA, OD405 at 10 ug/ml.
The target in assay [7] is G.con gp140CF. Briefly: ELISA, OD405 at 10 ug/ml.
The target of a further assay is T10, B.62357 140C.
T10 construct: also called B.62357 gp140C
Briefly: ELISA, OD405.

The next assay addresses B.63521 gp140C. Briefly: ELISA, OD405.
For assay [8], the target named is T11, C.1086 gp140.
T11 construct: also called C.1086gp140C
In words: ELISA, OD405.

The target of assay [9] is T12, G.con gp140CF.
T12 construct: also called G.con.env03 gp140CF
In words: ELISA, OD405.

For a further assay, the target named is C.CAP206 gp140CF.12 (HIV-1). Briefly: ELISA, OD405.
The target in another assay is T13, AE.97CNG2XF gp140CF (HIV-1).
T13 construct: also called E.97CNGX2F gp140CF
In words: ELISA, OD405.

A further assay concerns the target T14, B.HXB/BAL gp140CFI (HIV-1, UniProt P04578 33-680).
T14 construct: also called B.HxB/Ba gp140 CFI
Briefly: ELISA, OD405.

In a further assay the target is B.9021 gp140C (HIV-1). Briefly: ELISA, OD405.

The source of these data is patent US9988424 (DUKE UNIVERSITY, dated 2018).

As usually defined, the EC50 is the concentration that produces a half-maximal response. Low values mean greater potency, high ones weaker potency.

Positions count from the first letter of the chain named. Read-outs that look alike come from different tables or passages of the source.

B1: PG16 (antibody, V domains shown)
VH: QEQLVESGGGVVQPGGSLRLSCLASGFTFHKYGMHWVRQAPGKGLEWVALISDDGMRKYHSDSMWGRVTISRDNSKNTLYLQFSSLKVEDTAMFFCAREAGGPIWHDDVKYYDFNDGYYNYHYMDVWGKGTTVTVSS
VL: QSALTQPASVSGSPGQTITISCNGTSSDVGGFDSVSWYQQSPGKAPKVMVFDVSHRPSGISNRFSGSKSGNTASLTISGLHIEDEGDYFCSSLTDRSHRIFGGGTKVTVL
notes: also called mAb PG16; bnAb PG16
Turning to B1, the binding result (with gp70 A.92RW020V1V2; in assay [1]; with gp70 B.HXB2/BALV1V2; in assay [2]; in assay [3]; with J08 C.97ZA012V1V2) was “no binding (tested: 100 ug/ml)” each time.

B2: CH59 (antibody, V domains shown)
VH: EVQLVESGGGLVQPGRSLRLSCAASGFTFDDGAMHWVRQAPGKGLEWVSGISWNSNIIAYADSVKGRFTISRDNAKNSLYLEMNSLRVEDTALYYCAKDSPRGELPLNYWGQGTLVTVSS
VL: SYELTQPPSVSVSPGQTARITCSGDALPKNYAYWYQQKSGQAPVLVIYEDSKRPSGIPERFSGSSSGTMATLTISGAQVEDEADYYCYSTDSSGNHRVFGGGTKLTVL
notes: also called mAb CH59
Take B2: the EC50 with AE.A244 gD+ gp120 N160K [4] and with AE.A244 gD+ gp120 N160K [5] was 0.03 nM in each case. Moreover, the binding result with A.9004SS V1/V2 tags was “binds”; with AE.con gp140CF it was “binds”; with B.040 gp140C it was “no binding (tested: 10 ug/ml)”; with B.62357 gp140C, “no binding (tested: 10 ug/ml)”; in the assay with B.63521_V1/V2 tags, “no binding (tested: 10 ug/ml)”; with C.1086 gp140 [6], “binds”. Further, the binding result with Con 6 gp120 is given as “no binding (tested: 10 ug/ml)”; with D.9009SA V1/V2 tags, “binds”; with G.con gp140CF [7], “no binding (tested: 10 ug/ml)”.

B3: CH58 reverted unmutated ancestor antibody (antibody, V domains shown)
VH: EVQLVQSGAEVKKPGESLKISCKGSGYSFTSYWIGWVRQMPGKGLEWMGIIYPGDSDTRYSPSFQGQVTISADKSISTAYLQWSSLKASDTAMYYCARLGGRYYYDSSGYYYFDYWGQGTLVTVSS
VL: NFMLTQPHSVSESPGKTVTISCTRSSGSIASNYVQWYQQRPGSSPTTVIYEDNQRPSGVPDRFSGSIDSSSNSASLTISGLKTEDEADYYCQSYDSSSWVFGGGTKLTVL
notes: also called CH58 RUA; CH58_RUA
In the case of B3, the binding result with B.62357 140C, with B.63521 gp140C, in the assay with C.1086 gp140 [8], with G.con gp140CF [9], with C.CAP206 gp140CF.12 and with AE.97CNG2XF gp140CF was “no binding (tested: 10 ug/ml)” each time. Also, the binding result with B.HXB/BAL gp140CFI and with B.9021 gp140C was “no binding (tested: 10 ug/ml)” in each case.
